Reference: patent US20200317768A1 (published 2020)
Where a chain is given by its changes, count along the chain named.

T1: cynomolgus monkey FcγRIIa1 extracellular domain, His-tagged (cynomolgus monkey)
T1 construct: also called cyno FcγRIIa1; cynoFcgRIIa1; not shown: C-terminal His-tag
T1 chain: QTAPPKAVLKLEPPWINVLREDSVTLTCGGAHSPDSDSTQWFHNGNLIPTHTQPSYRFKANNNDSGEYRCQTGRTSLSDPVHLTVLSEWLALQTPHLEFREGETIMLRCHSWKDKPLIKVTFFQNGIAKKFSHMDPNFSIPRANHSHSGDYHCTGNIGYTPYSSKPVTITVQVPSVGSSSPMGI

T2: cynomolgus monkey FcγRIIa2 extracellular domain, His-tagged (cynomolgus monkey)
T2 construct: also called cyno FcγRIIa2; cynoFcgRIIa2; not shown: C-terminal His-tag
T2 chain: T1 chain with P95T, T121A, I127K, A128S, K130N, D135N, R142Q

T3: cynomolgus monkey FcγRIIa3 extracellular domain, His-tagged (cynomolgus monkey)
T3 construct: also called cyno FcγRIIa3; cynoFcgRIIa3; not shown: C-terminal His-tag
T3 chain: T1 chain with P95T, T121A, A128S, H133P, D135N

T4: cynomolgus monkey FcγRIIb extracellular domain, His-tagged (cynomolgus monkey)
T4 construct: also called cyno FcγRIIb; cynoFcγRIIb; not shown: C-terminal His-tag
T4 chain: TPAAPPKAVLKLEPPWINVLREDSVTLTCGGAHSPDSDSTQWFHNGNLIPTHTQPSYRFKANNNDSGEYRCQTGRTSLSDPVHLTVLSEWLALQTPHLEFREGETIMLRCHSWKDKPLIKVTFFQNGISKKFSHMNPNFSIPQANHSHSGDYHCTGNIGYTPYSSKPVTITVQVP

T5: cynomolgus monkey FcγRIIIaS extracellular domain, His-tagged (cynomolgus monkey, UniProt Q8SPW2 21-206 at identity 1.00))
T5 construct: also called cyno FcγRIIIaS; cynoFcγRIIIaS; not shown: C-terminal His-tag
T5 chain: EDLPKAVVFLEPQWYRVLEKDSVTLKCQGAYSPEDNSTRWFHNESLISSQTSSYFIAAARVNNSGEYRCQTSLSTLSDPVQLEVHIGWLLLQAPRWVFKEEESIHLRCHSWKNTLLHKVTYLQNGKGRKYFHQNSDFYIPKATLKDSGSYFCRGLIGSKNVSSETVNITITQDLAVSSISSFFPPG

T6: human FcγRIIaH extracellular domain, His-tagged (human, UniProt P12318 34-217)
T6 construct: also called human FcγRIIa (type H); FcgRIIaH; not shown: C-terminal His-tag
T6 sequence: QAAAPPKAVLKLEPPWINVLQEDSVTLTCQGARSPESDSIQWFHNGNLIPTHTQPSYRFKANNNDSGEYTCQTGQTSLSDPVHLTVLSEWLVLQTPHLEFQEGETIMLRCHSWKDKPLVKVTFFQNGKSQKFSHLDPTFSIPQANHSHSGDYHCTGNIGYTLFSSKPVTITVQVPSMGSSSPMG

T7: human FcγRIIaR extracellular domain, His-tagged (human, UniProt P12318 34-217)
T7 construct: also called human FcγRIIa (type R); FcgRIIaR; not shown: C-terminal His-tag
T7 chain: T6 sequence with H134R

B1: M103205H795-MY443/M103202L889-SK1 (antibody, human IgG1, kappa)
heavy: QVTLKESGPVLVKPTETLTLTCTVSGIDLSHDDISWVRQAPGKGLEWVGIISYAGSTYYASWAKGRLTISKDTSKNQVVLTMTNMDPVDTATYYCARGVPAYSHGGDLWGQGTLVTVSSASTKGPSVFPLAPSSKSTSGGTAALGCLVKDYFPEPVTVSWNSGALTSGVHTFPAVLQSSGLYSLSSVVTVPSSSLGTQTYICNVNHKPSNTKVDKKVEPKSCDKTHTCPPCPAEELLTGPSVFLFPPKPKDTLMISRTPEVTCVVVDVSDEDPEVKFNWYVDGVEVHNAKTKPREEQYNSTYRVVSVLTVLHQDWLNGKEYKCKVSNKALPKPIEKTISKAKGQPREPQVYTLPPSREEMTKNQVSLTCLVKGFYPSDIAVEWESNGQPENNYKTTPPVLDSDGSFFLYSKLTVDKSRWQQGNVFSCSVMHEALHNHYTQKSLSLSP
light: DIVMTQSPATLSLSPGERATLSCTSSQSVYHANWLSWFQQKPGQPPKLLIYWASTLAYGVPSRFSGSGSGTDFTLTISSLQPEDAATYYCAGGYGGGRYAFGQGTKVEIKRTVAAPSVFIFPPSDEQLKSGTASVVCLLNNFYPREAKVQWKVDNALQSGNSQESVTEQDSKDSTYSLSSTLTLSKADYEKHKVYACEVTHQGLSSPVTKSFNRGEC
notes: copies: 2 + 2
B2: M103205H795-MY465/M103202L889-SK1 (antibody, human IgG1, kappa)
heavy: B1 heavy with A233K, E234P
light: B1 light
notes: copies: 2 + 2
B3: M103205H795-MY447/M103202L889-SK1 (antibody, human IgG1, kappa)
heavy: B1 heavy with E234I
light: B1 light
notes: copies: 2 + 2
B4: M103205H795-MY446/M103202L889-SK1 (antibody, human IgG1, kappa)
heavy: B1 heavy with E234H
light: B1 light
notes: copies: 2 + 2
B5: M103205H795-MY444/M103202L889-SK1 (antibody, human IgG1, kappa)
heavy: B1 heavy with E234F
light: B1 light
notes: copies: 2 + 2
B6: M103205H795-MY460/M103202L889-SK1 (antibody, human IgG1, kappa)
heavy: B1 heavy with A233E, E234P
light: B1 light
notes: copies: 2 + 2
B7: M103205H795-MY462/M103202L889-SK1 (antibody, human IgG1, kappa)
heavy: B1 heavy with A233G, E234P
light: B1 light
notes: copies: 2 + 2
B8: M103205H795-MY448/M103202L889-SK1 (antibody, human IgG1, kappa)
heavy: B1 heavy with E234K
light: B1 light
notes: copies: 2 + 2
B9: M103205H795-MY463/M103202L889-SK1 (antibody, human IgG1, kappa)
heavy: B1 heavy with A233H, E234P
light: B1 light
notes: copies: 2 + 2
B10: M103205H795-MY461/M103202L889-SK1 (antibody, human IgG1, kappa)
heavy: B1 heavy with A233F, E234P
light: B1 light
notes: copies: 2 + 2
B11: M103205H795-MY464/M103202L889-SK1 (antibody, human IgG1, kappa)
heavy: B1 heavy with A233I, E234P
light: B1 light
notes: copies: 2 + 2
B12: M103205H795-MY445/M103202L889-SK1 (antibody, human IgG1, kappa)
heavy: B1 heavy with E234G
light: B1 light
notes: copies: 2 + 2
B13: M103205H795-MY459/M103202L889-SK1 (antibody, human IgG1, kappa)
heavy: B1 heavy with A233D, E234P
light: B1 light
notes: copies: 2 + 2

Molecular target: T1, cynomolgus monkey FcγRIIa1 …
Assay: SPR (BIACORE), captured antibody, FcgR as analyte

| Kd | Binder |
| --- | --- |
| 4800 nM | B1 |
| 2000 nM | B2 |
| 990 nM | B3 |
| 2500 nM | B4 |
| 1200 nM | B5 |
| 3100 nM | B6 |
| 1900 nM | B7 |
| 9600 nM | B8 |
| 2100 nM | B9 |
| 1300 nM | B10 |
| 1900 nM | B11 |
| 5600 nM | B12 |
| 5000 nM | B13 |

Molecular target: T2, cynomolgus monkey FcγRIIa2 …
Assay: SPR (BIACORE), captured antibody, FcgR as analyte

| Kd | Binder |
| --- | --- |
| 5000 nM | B1 |
| 2800 nM | B2 |
| 880 nM | B3 |
| 2200 nM | B4 |
| 1100 nM | B5 |
| 3100 nM | B6 |
| 1600 nM | B7 |
| 7500 nM | B8 |
| 1800 nM | B9 |
| 1800 nM | B10 |
| 1500 nM | B11 |
| 5500 nM | B12 |
| 4700 nM | B13 |

Molecular target: T3, cynomolgus monkey FcγRIIa3 …
Assay: SPR (BIACORE), captured antibody, FcgR as analyte

| Kd | Binder |
| --- | --- |
| 8800 nM | B1 |
| 5200 nM | B2 |
| 1050 nM | B3 |
| 4700 nM | B4 |
| 1900 nM | B5 |
| 5500 nM | B6 |
| 4200 nM | B7 |
| 21000 nM | B8 |
| 4400 nM | B9 |
| 3300 nM | B10 |
| 3900 nM | B11 |
| 14000 nM | B12 |
| 7500 nM | B13 |

Molecular target: T4, cynomolgus monkey FcγRIIb extracellular …
Assay: SPR (BIACORE), captured antibody, FcgR as analyte

| Kd | Binder |
| --- | --- |
| 1200 nM | B1 |
| 630 nM | B2 |
| 230 nM | B3 |
| 630 nM | B4 |
| 300 nM | B5 |
| 790 nM | B6 |
| 470 nM | B7 |
| 2300 nM | B8 |
| 580 nM | B9 |
| 470 nM | B10 |
| 500 nM | B11 |
| 1400 nM | B12 |
| 1100 nM | B13 |

Molecular target: T5, cynomolgus monkey FcγRIIIaS …
Assay: SPR (BIACORE), captured antibody, FcgR as analyte

| Kd | Binder |
| --- | --- |
| 2600 nM | B1 |
| 1900 nM | B2 |
| 1100 nM | B3 |
| 2900 nM | B4 |
| 1600 nM | B5 |
| 2700 nM | B6 |
| 1800 nM | B7 |
| 6500 nM | B8 |
| 1600 nM | B9 |
| 2100 nM | B10 |
| 1700 nM | B11 |
| 3500 nM | B12 |
| 3200 nM | B13 |

The binders below were run against T6, human FcγRIIaH extracellular domain, … (assay: SPR (BIACORE), captured antibody, FcgR as analyte).

| Kd | Binder |
| --- | --- |
| 530 nM | B1 |
| 250 nM | B2 |
| 97 nM | B3 |
| 260 nM | B4 |
| 110 nM | B5 |
| 260 nM | B6 |
| 240 nM | B7 |
| 930 nM | B8 |
| 220 nM | B9 |
| 130 nM | B10 |
| 170 nM | B11 |
| 560 nM | B12 |
| 390 nM | B13 |

Molecular target: T7, human FcγRIIaR extracellular domain, …
Assay: SPR (BIACORE), captured antibody, FcgR as analyte

| Kd | Binder |
| --- | --- |
| 640 nM | B1 |
| 600 nM | B2 |
| 98 nM | B3 |
| 480 nM | B4 |
| 140 nM | B5 |
| 550 nM | B6 |
| 490 nM | B7 |
| 2200 nM | B8 |
| 520 nM | B9 |
| 340 nM | B10 |
| 260 nM | B11 |
| 1200 nM | B12 |
| 560 nM | B13 |

The binders below were run against T8, human FcγRIIIaV extracellular domain, His-tagged (human, UniProt P08637 17-208) (assay: SPR (BIACORE), captured antibody, FcgR as analyte).
T8 construct: also called FcgRIIIaV; not shown: C-terminal His-tag
T8 sequence (P08637 17-208 F176V): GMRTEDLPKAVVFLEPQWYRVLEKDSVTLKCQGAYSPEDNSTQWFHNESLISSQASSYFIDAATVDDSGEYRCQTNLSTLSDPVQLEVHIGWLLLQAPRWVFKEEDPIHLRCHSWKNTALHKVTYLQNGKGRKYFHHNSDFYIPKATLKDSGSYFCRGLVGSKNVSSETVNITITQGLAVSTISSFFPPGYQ

| Kd | Binder |
| --- | --- |
| 5900 nM | B1 |
| 5500 nM | B2 |
| 4000 nM | B3 |
| 7100 nM | B4 |
| 5200 nM | B5 |
| 6700 nM | B6 |
| 5400 nM | B7 |
| 13000 nM | B8 |
| 4300 nM | B9 |
| 5400 nM | B10 |
| 4400 nM | B11 |
| 9500 nM | B12 |
| 8700 nM | B13 |

Molecular target: T1, cynomolgus monkey FcγRIIa1 …
Assay: SPR (BIACORE); KD of SG1 divided by KD of variant;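 also: relative to parent M103205H795-SG1 carrying the SG1 human heavy chain constant region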

| KD fold (SG1 = 1) | Binder |
| --- | --- |
| 0.7 fold | B1 |
| 1.6 fold | B2 |
| 3.2 fold | B3 |
| 1.3 fold | B4 |
| 2.7 fold | B5 |
| 1 fold | B6 |
| 1.7 fold | B7 |
| 0.3 fold | B8 |
| 1.5 fold | B9 |
| 1.8 fold | B10 |
| 1.7 fold | B11 |
| 0.6 fold | B12 |
| 0.6 fold | B13 |

The binders below were run against T8, human FcγRIIIaV extracellular domain, … (assay: SPR (BIACORE); KD of SG1 divided by KD of variant;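 also: relative to parent M103205H795-SG1 carrying the SG1 human heavy chain constant region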).

| KD fold (SG1 = 1) | Binder |
| --- | --- |
| 0.1 fold | B1 |
| 0.1 fold | B2 |
| 0.2 fold | B3 |
| 0.1 fold | B4 |
| 0.3 fold | B5 |
| 0.1 fold | B6 |
| 0.3 fold | B7 |
| 0.1 fold | B8 |
| 0.2 fold | B9 |
| 0.3 fold | B10 |
| 0.2 fold | B11 |
| 0.1 fold | B12 |
| 0.1 fold | B13 |
